Experimental data as given in publication PMC7870846, “Incorporation of sensing modalities into de novo designed fluorescence-activating proteins” (Nature Communications, 2021).

Legend:
[1] = target: MBP-tagged split mFAP fragment m12; assay: split reporter (BiFC, NanoBiT); protein-fragment complementation in vitro: complementary MBP-fused split mFAP fragments mixed at equimolar concentration with excess DFHBI-1T (1.00 uL of 1.25 mM in 25.0 uL); fluorescence endpoint ex 478 nm, em 520 nm; background without protein
[2] = target: MBP-tagged split mFAP fragment m12; assay: other fluorescence titration; MBP-tagged fragment titrated into its complementary MBP-tagged fragment; 25.0 uM DFHBI-1T; high-salt Tev cleavage buffer (25.0 mM Tris, 100 mM NaCl, pH 8.00); ex 468 nm, em 530 nm; estimated Kd, signal did not plateau

B1: MBP-tagged split mFAP fragment m38 (domain or fragment)
chain: YTMDIVAQGTISDGRPIVGYGKATVKTPDTLDIDITYPSLGNIKAQGQITMDSPTQFKWDATTKGENDFHGRLTGTLQRQE
modifications: here or on the partner: strands 3-8; cut assumed in loop2 (34/35); MBP omitted / strands 1-2 of mFAP2a; cut assumed in loop2 (34/35, as in cp35-34); exact limits are in Supplementary Data 1, not shown; MBP omitted
Q: Which results are given for B1?
A: fold mean fluorescence intensity over background [1]: 7.34 fold; fold mean fluorescence intensity over the combination m1 and m28 [1]: 184 fold; Kd [2]: > 281 µM
